Tests used:
[1] = system: EphA2 having Myc-labeled C-terminal
E-cadherin = E-cadherin (UniProt P12830)
[2] = system: EphA2 (full-length type EphA2)
[3] = system: processing-resistant EphA2 mutant (EphA2 deleted at a site to be processed by MT1-MMP, FLAG-labeled C terminal)

E-cadherin, sequence (P12830 155-882): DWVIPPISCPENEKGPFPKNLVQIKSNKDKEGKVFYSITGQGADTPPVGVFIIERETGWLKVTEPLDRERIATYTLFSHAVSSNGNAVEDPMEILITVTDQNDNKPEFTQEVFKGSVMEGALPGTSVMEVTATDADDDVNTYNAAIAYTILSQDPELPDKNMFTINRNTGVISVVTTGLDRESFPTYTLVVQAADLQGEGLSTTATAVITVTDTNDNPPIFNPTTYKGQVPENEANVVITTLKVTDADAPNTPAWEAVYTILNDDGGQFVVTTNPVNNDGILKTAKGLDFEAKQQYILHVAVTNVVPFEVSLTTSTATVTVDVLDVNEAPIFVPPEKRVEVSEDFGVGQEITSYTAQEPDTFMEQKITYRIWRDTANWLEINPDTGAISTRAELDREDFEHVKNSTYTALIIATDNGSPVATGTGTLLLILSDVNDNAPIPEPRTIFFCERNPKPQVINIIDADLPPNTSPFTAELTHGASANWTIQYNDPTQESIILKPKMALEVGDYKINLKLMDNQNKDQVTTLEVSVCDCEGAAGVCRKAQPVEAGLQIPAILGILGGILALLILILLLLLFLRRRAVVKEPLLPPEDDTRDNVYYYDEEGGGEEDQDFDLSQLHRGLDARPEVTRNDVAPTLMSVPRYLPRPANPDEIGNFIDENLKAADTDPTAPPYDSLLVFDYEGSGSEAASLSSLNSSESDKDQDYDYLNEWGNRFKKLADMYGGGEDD

Substance | EphA2 processed fragment, western blotting [1] | EphA2 processed fragments, western blotting with Myc antibody [1] | processing of E-cadherin, western blotting (E-cadherin) | 65-kDa and 60-kDa processed fragments of EphA2 after MT1-MMP knockdown, IP-western [2] | processed state of EphA2, western blotting [3]
MT5-MMP | a processed fragment of EphA2 (small arrow) was detected only in the MT1-MMP-introduced cells |  |  |  | 
membrane type-1 matrix metallproteinase (MT1-MMP), expressed in cells |  | full-length type EphA2 (large arrow) and respective EphA2 processed fragments (small arrow) having a molecular weight of 65 and 60 kDa were detected | presence or absence of MT1-MMP expression caused no change in the processing of E-cadherin | Due to MT1-MMP knockdown, the 65-kDa and 60-kDa processed fragments of EphA2 disappeared | the mutant deleted at a cleavage site showed resistance against processing by MT1-MMP
MT3-MMP | a processed fragment of EphA2 (small arrow) was detected only in the MT1-MMP-introduced cells |  |  |  | 
MT2-MMP | a processed fragment of EphA2 (small arrow) was detected only in the MT1-MMP-introduced cells |  |  |  | 

— patent US20190064149
